{"source": "patent US6534629B1", "about": "“Nematode-extracted serine protease inhibitors and anticoagulant proteins” (priority 1994, dated 2003)", "key": {"[1]": {"test_system": "FeCl3-induced platelet-dependent arterial thrombosis", "test": "Rat model of FeCl3-induced platelet-dependent arterial thrombosis, intravenous administration", "type": "in vivo", "details": "dose that prevents complete thrombotic occlusion in 50% of animals", "experimental": "The antithrombotic (prevention of thrombus formation) properties of NAP were evaluated using the established experimental rat model of acute vascular thrombosis.\nThe rat FeCl3 model is a well characterized model of platelet dependent, arterial thrombosis which has been used to evaluate potential antithrombotic compounds. Kurz, K. D., Main, B. W., and Sandusky, G. E., Thromb. Res., 60: 269-280 (1990). In this model a platelet-rich, occlusive thrombus is formed in a segment of the rat carotid artery treated locally with a fresh solution of FeCl3 absorbed to a piece of filter paper. The FeCl3 is thought to diffuse into the treated segment of artery and cause de-endothelialization of the affected vessel surface. […] The net result is occlusive thrombus formation. The effect of a test compound on the incidence of occlusive thrombus formation following application of FeCl3 is monitored by ultrasonic flowtometry and is used as the primary end point. […]\nFollowing surgery the animals were randomized in either a control (saline) or treatment (recombinant AcaNAP5) group. […] Blood pressure, blood flow, heart rate, and respiration were monitored for 60 minutes. The incidence of occlusion (defined as the attainment of zero blood flow) was recorded as the primary end point."}, "[2]": {"test_system": "normal citrated human plasma", "test": "Prothrombin time (PT) assay", "type": "biochemical", "details": "for coagulation time of human plasma (Prothrombin Time Assay), in words: P. pastoris culture supernatant / growth media; for Doubling Concentration (nM) in the PT: concentration that doubled the control clotting time (12.1 seconds) of normal human plasma", "experimental": "(§1) The ex vivo anticoagulant effects of NAPs of the present invention in human plasma were evaluated by measuring the prolongation of the activated partial thromboplastin time (aPTT) and prothrombin time (PT) over a broad concentration range of each inhibitor.\n(§2) Fresh frozen pooled normal citrated human plasma was obtained from George King Biomedical, Overland Park, Kans. Respective measurements of aPTT and PT were made using the Coag-A-Mate RA4 automated coagulometer (General Diagnostics, Organon Technica, Oklahoma City, Okla.) using the Automated aPTT Platelin® reagent (Organon Technica, Durham, N.C.) and Simplastin® Excel (Organon Technica, Durham, N.C.) respectively, as initiators of clotting according to the manufacturer's instructions.\n(§3) The assays were conducted by making a series of dilutions of each tested NAP in rapidly thawed plasma followed by adding 200 microliters or 100 microliters of the above referenced reagents to the wells of the assay carousel for the aPTT or PT measurements, respectively. Alternatively, the NAPs were serially diluted into HBSA and 10 μl of each dilution were added to 100 μl of normal human plasma in the wells of the Coag-A-Mate assay carousel, followed by addition of reagent.\nConcentrations of NAP were plotted against clotting time, and a doubling time concentration was calculated, i.e., a specified concentration of NAP that doubled the control clotting time of either the PT or the aPTT. The control clotting times (absence of NAP) in the PT and APTT were 12.1 seconds and 28.5 seconds, respectively."}, "[3]": {"target": "human rFVIIa/rTF/PLV complex", "test": "Factor VIIa/Tissue factor amidolytic assay", "type": "biochemical", "experimental": "Lyophilized, purified, recombinant human factor VIIa was obtained from BiosPacific, Inc. (Emeryville, Calif.), and reconstituted in HBS (10 mM HEPES, pH 7.5, 150 mM sodium chloride) prior to use. Purified human Factor X was obtained from Enzyme Research Laboratories, Inc. (South Bend, Ind.) and Factor Xa (free FXa) was activated and prepared from Factor X as described (Bock, P. E., Craig, P. A., Olson, S. T., and Singh, P. Arch. Biochem. Biophys. 273: 375-388 (1989)). Active site-blocked human Factor Xa (EGR-FXa), which had been irreversibly inactivated with L-Glutamyl-L-glycyl-L-arginyl chloromethylketone, was obtained from Haematologic Technologies, Inc. (Essex Junction, Vt.). Recombinant human tissue factor (rTF) was produced by a baculovirus-expression system, and purified to homogeneity by monoclonal antibody affinity chromatography (Corvas International, Inc., San Diego, Calif.).\nThe purified rTF apoprotein was incorporated into phospholipid vesicles (rTF/PLV), consisting of phosphotidyl choline (75%, w/v) and phosphotidyl serine (25%, w/v) in the presence of detergent, as described by Ruf et al. (Ruf, W., Miles, D. J., Rehemtulla, A., and Edgington, T. S. Methods in Enzymology 222: 209-224 (1993)). The phospholipids were purchased from Avanti Polar Lipids, (Alabaster, Ala.). The buffer used for all assays was HBSA, HBS containing 0.1% (w/v) bovine serum albumin. All reagents were obtained from Sigma Chemical Cb. (St. Louis, Mo.), unless otherwise indicated.\nrFVIIa/rTF amidolytic activity was determined using the chromogenic substrate S-2288 (H-D-isoleucyl-L-prolyl-L-arginine-p-nitroaniline), obtained from Kabi Pharmacia Hepar, Inc. (Franklin, Ohio). The substrate was reconstituted in deionized water prior to use. rFVIIa and rTF/PLV were combined in a polypropylene test tube, and allowed to form a complex for 10 min in HBSA, containing 3 mM CaCl2. […] Following an incubation of 30 min at ambient temperature, the triplicate reactions were initiated by adding 50 μL of S-2288.\nThe amidolytic activity of rFVIIa/rTF/PLV was measured as a linear increase in the absorbance at 405 nm over 10 min (velocity), using a Thermo Max® Kinetic Microplate Reader (Molecular Devices, Palo Alto, Calif.), under steady-state conditions, where less than 5% of the substrate was consumed. Ratios of inhibited pre-equilibrium, steady-state velocities (Vi), in the presence of NAP, to the uninhibited velocity in the presence of free fXa alone (Vo) were plotted against the corresponding concentrations of NAP."}, "[4]": {"test_system": "normal citrated human plasma", "test": "Activated partial thromboplastin time (aPTT) assay", "type": "biochemical", "details": "concentration that doubled the control clotting time (28.5 seconds) of normal human plasma", "experimental": "as §1, §2, §3\nConcentrations of NAP were plotted against clotting time, and a doubling time concentration was calculated, i.e., a specified concentration of NAP that doubled the control clotting time of either the PT or the aPTT."}, "[5]": {"test_system": "acute coronary artery thrombosis", "test": "Pig model of acute coronary artery thrombosis", "type": "in vivo", "details": "for Time of Occulsion: non-occluded vessels assigned 240 minutes", "source_text": "The protocol used in these studies is a modification of a thrombosis model which has been reported previously (Lucchesi, B. R., et al., (1994), Brit. J. Pharmacol. 113: 1333-1343).\nAnimals were anesthetized and instrumented with arterial and venous catheters (left common carotid and external jugular, respectively). A thoracotomy was made in the 4th intercostal space and the heart was exposed. The left anterior descending (LAD) coronary artery was isolated from the overlying connective tissue and was instrumented with a Doppler flow probe and a 17 gauge ligature stenosis. An anodal electrode also was implanted inside the vessel.\nBaseline measurements were taken and the NAP or placebo to be tested was administered via the external jugular vein. Five minutes after administration, a direct current (300 μA, DC) was applied to the stimulating electrode to initiate intimal damage to the coronary endothelium and begin thrombus formation. Current continued for a period of 3 hours. Animals were observed until either 1 hour after the cessation of current or the death of the animal, whichever came first.\nThe incidence of occlusion in the animals receiving placebo was 8/8 (100%). Time to occlusion in placebo treated animals was 66.6±7.5 min. (mean±sem)."}, "[6]": {"details": "No FXa Addition, read-out: Ki* (pM) Amidolytic Assay, No FXa Addition"}}, "note": "Like-named read-outs stand apart in the source and are kept apart here. Marks after values point to notes of the source that are not given here.", "data": [{"molecule": "CC1CNc2c(cccc2S(=O)(=O)N[C@@H](CCCNC(=N)N)C(=O)N2CC[C@@H](C)C[C@@H]2C(=O)O)C1", "note": "(some centres unmarked) [Argatroban]", "values": [{"measurement": "ED50", "setting": "[1]; read-out: ED50", "value": 3.8, "unit": "mg/kg"}]}, {"molecule": "rTAP: recombinant Tick Anticoagulant Peptide, 60 amino acid factor Xa inhibitor from Ornithodoros moubata (YNRLCIKPRDWIDECDSNEGGERAYFRNGKGGCDSFWICPEDHTGADYYSSYRDCFNACI; UniProt P17726 1-60, looked up)", "values": [{"measurement": "ED50", "setting": "[1]", "value": 0.6, "unit": "mg/kg"}]}, {"molecule": "AcaNAP42: NAP of Ancylostoma caninum, SEQ. ID. NO. 47; AcaNAP31, 42 and 46 encode identical proteins (protein) KSLWDQKCGENERLDCGNQKDCERKCDDKRSEEEIMQACLTRQCLPPVCVCEDGFYRNDNDQCVDEEECNMEFITFAP", "values": [{"measurement": "coagulation time of human plasma (Prothrombin Time Assay), in words", "setting": "[2]", "value": "prolongation of the coagulation time of human plasma"}]}, {"molecule": "AcaNAP6: NAP of Ancylostoma caninum, SEQ. ID. NO. 6; recombinant, made in Pichia pastoris (protein) KAYPECGENEWLDVCGTKKPCEAKCSEEEEEDPICRSFSCPGPAACVCEDGFYRDTVIGDCVKEEECDQHEIIHV", "values": [{"measurement": "Ki", "setting": "[3]; [6]", "value": "> 1500", "unit": "pM"}, {"measurement": "Ki", "setting": "[3]; Plus EGR-FXa (2.5 nM), read-out: Ki* (pM) Amidolytic Assay, Plus EGR-FXa", "value": "> 1500", "unit": "pM"}, {"measurement": "Doubling Concentration (nM) in the aPTT", "setting": "[4]", "value": "62 ± 0", "unit": "nM"}, {"measurement": "Doubling Concentration (nM) in the PT", "setting": "[2]", "value": "37 ± 3", "unit": "nM"}]}, {"molecule": "AcaNAPc2: NAP of Ancylostoma caninum isolated by phage display, SEQ. ID. NO. 59; fVIIa/TF inhibitor (protein) KATMQCGENEKYDSCGSKECDKKCKYDGVEEEDDEEPNVPCLVRVCHQDCVCEEGFYRNKDDKCVSAEDCELDNMDFIYPGTRN", "values": [{"measurement": "Ki", "setting": "[3]; [6]", "value": "> 1500", "unit": "pM"}, {"measurement": "Doubling Concentration (nM) in the PT", "setting": "[2]", "value": "15 ± 1", "unit": "nM"}]}, {"molecule": "AcaNAPc2P: AcaNAPc2 with an additional proline residue at the C-terminus (protein) KATMQCGENEKYDSCGSKECDKKCKYDGVEEEDDEEPNVPCLVRVCHQDCVCEEGFYRNKDDKCVSAEDCELDNMDFIYPGTRNP", "values": [{"measurement": "in vitro activity in inhibitory assays of rFVIIa/rTF activity, compared with AcaNAPc2", "setting": "[3]", "value": "substantially the same as AcaNAPc2"}, {"measurement": "Incidence of Occlusion", "setting": "[5]; 0.01 mg/kg i.v.", "value": "6/6"}, {"measurement": "Total Blood Loss", "setting": "[5]; 0.01 mg/kg i.v.", "value": "1.6 ± 0.3", "unit": "mL"}, {"measurement": "Time of Occulsion", "setting": "[5]; 0.01 mg/kg i.v.", "value": "105 ± 6.2", "unit": "min"}, {"measurement": "Incidence of Occlusion", "setting": "[5]; 0.03 mg/kg i.v.", "value": "4/6"}, {"measurement": "Total Blood Loss", "setting": "[5]; 0.03 mg/kg i.v.", "value": "4.9 ± 1.4", "unit": "mL"}, {"measurement": "bleeding, in words", "setting": "[5]; 0.03 mg/kg i.v.", "value": "did not produce significant elevations in bleeding"}, {"measurement": "time to occlusion, in words", "setting": "[5]; 0.03 mg/kg i.v.", "value": "significantly prolonged"}, {"measurement": "Time of Occulsion", "setting": "[5]; 0.03 mg/kg i.v.", "value": "159 ± 27", "unit": "min"}, {"measurement": "Incidence of Occlusion", "setting": "[5]; 0.10 mg/kg i.v.", "value": "2/6†"}, {"measurement": "Total Blood Loss", "setting": "[5]; 0.10 mg/kg i.v.", "value": "17.6 ± 7.9", "unit": "mL"}, {"measurement": "Time of Occulsion", "setting": "[5]; 0.10 mg/kg i.v.", "value": "215 ± 25", "unit": "min"}, {"measurement": "coagulation time of human plasma (Prothrombin Time Assay), in words", "setting": "[2]", "value": "prolongation of the coagulation time of human plasma"}]}, {"molecule": "AceNAP4: NAP of Ancylostoma ceylanicum with two NAP domains, SEQ. ID. NO. 62 (protein) KPNNVMTNACGLNEYFAECGNMKECEHRCNEEENEERDEERITACLIRVCFRPGACVCKDGFYRNRTGSCVEEDDCEYENMEFITFAPEVPICGSNERYSDCGNDKQCERKCNEDDYEKGDEACRSHVCERPGACVCEDGFYRNKKGSCVESDDCEYDNMDFITFAPETSR", "values": [{"measurement": "Doubling Concentration (nM) in the aPTT", "setting": "[4]", "value": "115 ± 12", "unit": "nM"}, {"measurement": "Doubling Concentration (nM) in the PT", "setting": "[2]", "value": "40 ± 4", "unit": "nM"}]}, {"molecule": "Pro-AcaNAP5: AcaNAP5 with four additional N-terminal amino acids, SEQ. ID. NO. 7, made in COS cells (protein) RTVRKAYPECGENEWLDDCGTQKPCEAKCNEEPPEEEDPICRSRGCLLPPACVCKDGFYRDTVIGDCVREEECDQHEIIHV", "values": [{"measurement": "Doubling Concentration (nM) in the aPTT", "setting": "[4]", "value": 31.0, "unit": "nM"}, {"measurement": "Doubling Concentration (nM) in the PT", "setting": "[2]", "value": 21.9, "unit": "nM"}]}]}
